Data published in paper PMC3904721, “The BEL1-like family of transcription factors in potato”.
Values belong to the molecule of their own block, whether it stands above or below them.

How the values were obtained:
NTH1 (tobacco) = experiment: two-hybrid; Matchmaker system (Clontech), yeast strain pJ69-2A; StBELs in pACT-AD (GAL4 activation domain), KNOX proteins in pBridge (GAL4-binding domain); co-transformation, selection on -Leu/-Trp/-His/-Ade; lacZ induction quantified by β-galactosidase assay (Miller units), three replicate samples
[1] = target: POTATO HOMEOBOX1 (POTH1) (potato); experiment: as above
StBEL5-GST;POTH1-GST = target: T1, StBEL5-GST;POTH1-GST (Solanum tuberosum (potato);Solanum …, UniProt Q8LLE4;P93588 1-688;1-345, |); experiment: EMSA; 2 mM Mg2+; 20 mM HEPES pH 7.5, 50 mM KCl, 2 mM MgCl2, 0.5 mM EDTA, 1 mM DTT, 10% glycerol, 0.5% Triton X-100, 20 ng/ul BSA, 50 ng/ul poly(dI-dC), 20 ul, on ice 60 min; 10; details: protein: recombinant;recombinant; tags: C-terminal GST;C-terminal GST; copies: 1;1; label: 3' biotin; blunt
T1 sequence 1: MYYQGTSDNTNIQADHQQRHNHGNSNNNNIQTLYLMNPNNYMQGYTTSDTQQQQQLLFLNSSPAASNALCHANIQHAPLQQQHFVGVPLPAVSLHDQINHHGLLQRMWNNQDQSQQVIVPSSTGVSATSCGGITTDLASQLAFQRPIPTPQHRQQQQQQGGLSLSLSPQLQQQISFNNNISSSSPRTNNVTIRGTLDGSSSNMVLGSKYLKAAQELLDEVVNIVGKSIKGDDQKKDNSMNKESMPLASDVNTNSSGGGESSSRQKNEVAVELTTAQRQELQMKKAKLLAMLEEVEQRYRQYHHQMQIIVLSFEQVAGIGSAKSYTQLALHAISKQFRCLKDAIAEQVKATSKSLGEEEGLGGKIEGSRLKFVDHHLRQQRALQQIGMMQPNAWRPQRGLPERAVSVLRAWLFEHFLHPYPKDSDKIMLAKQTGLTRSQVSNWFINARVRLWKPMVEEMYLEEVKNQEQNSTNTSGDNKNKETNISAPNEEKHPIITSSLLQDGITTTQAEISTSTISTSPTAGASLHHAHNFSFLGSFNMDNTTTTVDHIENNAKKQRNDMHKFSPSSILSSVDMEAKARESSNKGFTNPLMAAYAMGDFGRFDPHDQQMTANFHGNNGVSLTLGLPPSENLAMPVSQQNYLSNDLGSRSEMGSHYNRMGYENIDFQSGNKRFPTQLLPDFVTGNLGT
T1 sequence 2: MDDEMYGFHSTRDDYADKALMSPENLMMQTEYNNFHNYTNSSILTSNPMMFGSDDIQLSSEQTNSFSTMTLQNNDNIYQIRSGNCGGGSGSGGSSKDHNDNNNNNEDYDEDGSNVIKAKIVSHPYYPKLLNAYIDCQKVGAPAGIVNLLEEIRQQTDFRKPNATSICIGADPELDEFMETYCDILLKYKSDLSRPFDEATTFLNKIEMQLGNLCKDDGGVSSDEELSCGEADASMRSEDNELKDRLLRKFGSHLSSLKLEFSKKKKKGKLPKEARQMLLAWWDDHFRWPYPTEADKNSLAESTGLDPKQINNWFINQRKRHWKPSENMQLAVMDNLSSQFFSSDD

Molecule: StBEL31 (from UniProt M0ZWL8 1-423) (natural protein)
beta-galactosidase activity (NTH1 (tobacco)): 25 Miller units

Molecule: StBEL33 (from UniProt M1C8Y5 1-505) (natural protein)
beta-galactosidase activity [1]: 274 units

B1: StBEL34 bait (BEL34S/BEL34A) (dsDNA)
DNA 1: CCTTTCAATAAGATTATTGACGGTGACAATACTCGCCGTCAAA
DNA 2: TTTGACGGCGAGTATTGTCACCGTCAATAATCTTATTGAAAGG
binding result (StBEL5-GST;POTH1-GST): binds

Second part, the molecule after the results:

beta-galactosidase activity (NTH1 (tobacco)): 58 Miller units
Molecule: StBEL6 (natural protein)

beta-galactosidase activity (NTH1 (tobacco)): 233 units
Molecule: StBEL13 (from UniProt M1AMS7 1-738) (natural protein)
